{
  "source": "patent US20090149389A1",
  "about": "(PURDUE RESEARCH FOUNDATION, published 2009)",
  "assay_in_all_cases": "cell-based or functional assay",
  "key": {"Abl (h)": {"target": "Abl (h) (human (h), UniProt P00519 27-1130, limits assumed)", "sequence (P00519 27-1130 limits assumed)": "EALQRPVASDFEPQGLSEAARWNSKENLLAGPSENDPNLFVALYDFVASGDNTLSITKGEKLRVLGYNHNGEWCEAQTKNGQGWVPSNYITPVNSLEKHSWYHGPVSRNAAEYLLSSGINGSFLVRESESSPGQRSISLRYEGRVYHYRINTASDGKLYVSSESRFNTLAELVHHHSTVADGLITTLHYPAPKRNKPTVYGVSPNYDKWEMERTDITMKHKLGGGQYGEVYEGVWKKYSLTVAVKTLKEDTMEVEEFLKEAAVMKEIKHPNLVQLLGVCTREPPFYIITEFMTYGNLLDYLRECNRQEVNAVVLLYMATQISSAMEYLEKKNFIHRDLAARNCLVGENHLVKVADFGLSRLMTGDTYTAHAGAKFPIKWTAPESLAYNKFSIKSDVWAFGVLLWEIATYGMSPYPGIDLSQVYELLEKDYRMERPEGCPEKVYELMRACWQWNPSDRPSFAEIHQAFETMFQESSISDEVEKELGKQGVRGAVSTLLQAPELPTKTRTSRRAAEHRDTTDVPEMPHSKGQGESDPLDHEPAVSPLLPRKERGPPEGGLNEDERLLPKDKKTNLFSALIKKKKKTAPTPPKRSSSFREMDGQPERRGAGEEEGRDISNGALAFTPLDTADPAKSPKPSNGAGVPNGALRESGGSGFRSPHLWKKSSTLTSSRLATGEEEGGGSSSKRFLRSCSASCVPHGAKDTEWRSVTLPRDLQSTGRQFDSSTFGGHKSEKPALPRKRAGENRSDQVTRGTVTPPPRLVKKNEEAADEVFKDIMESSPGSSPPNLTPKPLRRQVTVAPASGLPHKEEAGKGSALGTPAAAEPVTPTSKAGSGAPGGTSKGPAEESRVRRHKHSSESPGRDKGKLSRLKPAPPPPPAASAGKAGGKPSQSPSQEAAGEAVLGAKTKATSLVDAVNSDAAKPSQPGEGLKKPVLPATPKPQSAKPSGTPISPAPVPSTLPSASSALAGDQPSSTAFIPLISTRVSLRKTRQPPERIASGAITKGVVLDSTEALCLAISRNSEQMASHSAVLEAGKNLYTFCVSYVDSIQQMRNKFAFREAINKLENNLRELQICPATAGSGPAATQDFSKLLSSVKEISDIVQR"}, "AMPK (r)": {"target": "AMPK (r) (rat (r), UniProt Q09137 1-552, limits assumed)"}, "CaMKI (h)": {"target": "CaMKI (h) (human (h), UniProt Q14012 1-370, limits assumed)", "sequence (Q14012 whole entry)": "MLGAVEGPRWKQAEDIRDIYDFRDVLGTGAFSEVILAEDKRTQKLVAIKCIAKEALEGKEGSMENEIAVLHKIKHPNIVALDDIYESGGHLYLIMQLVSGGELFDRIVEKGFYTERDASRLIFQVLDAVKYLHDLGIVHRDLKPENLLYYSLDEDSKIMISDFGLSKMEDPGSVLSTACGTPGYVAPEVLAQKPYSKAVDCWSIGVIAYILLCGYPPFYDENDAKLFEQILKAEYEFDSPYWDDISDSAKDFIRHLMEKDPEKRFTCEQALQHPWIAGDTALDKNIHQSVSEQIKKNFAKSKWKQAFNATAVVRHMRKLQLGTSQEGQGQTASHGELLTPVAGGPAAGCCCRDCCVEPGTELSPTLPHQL"}, "CDKI/cyclinB (h)": {"target": "CDKI/cyclinB (h) (human (h), UniProt P06493 1-297)", "sequence (P06493 whole entry)": "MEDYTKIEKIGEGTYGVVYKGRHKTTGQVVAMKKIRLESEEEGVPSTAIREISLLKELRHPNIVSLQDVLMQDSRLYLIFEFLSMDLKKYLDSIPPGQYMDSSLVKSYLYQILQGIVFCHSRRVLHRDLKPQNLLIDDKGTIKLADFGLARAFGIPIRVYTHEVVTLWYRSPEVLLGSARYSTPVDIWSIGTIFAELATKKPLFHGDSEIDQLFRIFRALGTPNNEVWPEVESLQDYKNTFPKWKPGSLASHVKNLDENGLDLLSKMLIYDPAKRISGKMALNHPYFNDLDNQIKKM"}, "CKIB (h)": {"target": "CKIB (h) (human (h))"}, "DYRK2 (h)": {"target": "T1, DYRK2 (h) (human (h), UniProt Q92630 1-601, limits assumed)", "T1 sequence (looked up)": "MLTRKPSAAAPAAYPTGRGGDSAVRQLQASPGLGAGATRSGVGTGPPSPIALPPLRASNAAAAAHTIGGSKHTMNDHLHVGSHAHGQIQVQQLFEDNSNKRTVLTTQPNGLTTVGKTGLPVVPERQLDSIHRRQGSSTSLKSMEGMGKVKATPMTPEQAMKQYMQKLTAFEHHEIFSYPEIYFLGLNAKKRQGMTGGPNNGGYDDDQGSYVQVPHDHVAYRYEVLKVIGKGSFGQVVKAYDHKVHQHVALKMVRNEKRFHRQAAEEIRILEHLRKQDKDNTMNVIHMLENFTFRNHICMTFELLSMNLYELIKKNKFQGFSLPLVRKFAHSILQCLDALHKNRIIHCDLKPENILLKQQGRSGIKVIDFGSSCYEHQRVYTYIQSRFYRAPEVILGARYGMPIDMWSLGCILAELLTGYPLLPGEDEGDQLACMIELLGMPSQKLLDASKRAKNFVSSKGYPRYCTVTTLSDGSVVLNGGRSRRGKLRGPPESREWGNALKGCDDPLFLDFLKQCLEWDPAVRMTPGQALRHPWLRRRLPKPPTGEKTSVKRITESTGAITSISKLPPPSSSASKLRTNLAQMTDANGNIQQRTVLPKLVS"}, "EphA2 (h)": {"target": "T2, EphA2 (h) (human (h), UniProt P29317 591-976, limits assumed)", "T2 sequence (looked up)": "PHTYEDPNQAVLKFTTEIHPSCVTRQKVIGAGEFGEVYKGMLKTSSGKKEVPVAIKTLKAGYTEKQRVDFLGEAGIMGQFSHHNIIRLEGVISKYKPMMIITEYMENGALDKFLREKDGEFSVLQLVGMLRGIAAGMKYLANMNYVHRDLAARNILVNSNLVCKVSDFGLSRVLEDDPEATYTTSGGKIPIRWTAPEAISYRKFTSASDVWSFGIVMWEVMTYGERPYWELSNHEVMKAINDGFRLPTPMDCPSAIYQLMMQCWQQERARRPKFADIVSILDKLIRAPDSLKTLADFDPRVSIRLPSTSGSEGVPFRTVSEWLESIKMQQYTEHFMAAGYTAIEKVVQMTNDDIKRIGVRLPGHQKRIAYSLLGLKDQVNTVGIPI"}, "FGFR1 (h)": {"target": "FGFR1 (h) (human (h), UniProt P11362 456-765, limits assumed)", "sequence (P11362 456-765 limits assumed)": "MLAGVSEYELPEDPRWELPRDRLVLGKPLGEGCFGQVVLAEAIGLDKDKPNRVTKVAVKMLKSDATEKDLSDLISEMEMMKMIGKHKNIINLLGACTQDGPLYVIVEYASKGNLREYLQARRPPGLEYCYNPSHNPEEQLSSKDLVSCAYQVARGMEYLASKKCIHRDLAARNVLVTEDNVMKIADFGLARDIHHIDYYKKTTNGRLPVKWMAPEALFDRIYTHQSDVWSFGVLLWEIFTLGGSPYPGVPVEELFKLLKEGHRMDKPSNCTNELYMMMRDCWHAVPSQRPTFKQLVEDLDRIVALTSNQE"}, "GSK3β (h)": {"target": "GSK3β (h) (human (h), UniProt P49841 1-420)"}, "IGF-IR (h)": {"target": "IGF-IR (h) (human (h), UniProt P08069 959-1367, limits assumed)", "sequence (P08069 959-1367 limits assumed)": "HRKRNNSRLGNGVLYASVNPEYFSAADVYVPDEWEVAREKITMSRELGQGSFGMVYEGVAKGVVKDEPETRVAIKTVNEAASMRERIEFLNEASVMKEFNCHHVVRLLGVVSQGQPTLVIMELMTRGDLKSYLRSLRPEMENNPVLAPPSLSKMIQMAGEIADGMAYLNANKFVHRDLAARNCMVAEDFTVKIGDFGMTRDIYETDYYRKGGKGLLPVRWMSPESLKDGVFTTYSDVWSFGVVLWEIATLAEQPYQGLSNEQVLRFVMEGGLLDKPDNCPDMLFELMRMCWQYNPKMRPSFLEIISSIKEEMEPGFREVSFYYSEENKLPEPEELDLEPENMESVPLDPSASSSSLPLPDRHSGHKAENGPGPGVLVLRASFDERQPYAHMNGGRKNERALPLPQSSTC"}, "Lck (h)": {"target": "Lck (h) (human (h), UniProt P06239 1-509)"}, "L1MK1 (h)": {"target": "L1MK1 (h) (human (h), UniProt P53667 285-638, limits assumed)", "sequence (P53667 285-638 limits assumed)": "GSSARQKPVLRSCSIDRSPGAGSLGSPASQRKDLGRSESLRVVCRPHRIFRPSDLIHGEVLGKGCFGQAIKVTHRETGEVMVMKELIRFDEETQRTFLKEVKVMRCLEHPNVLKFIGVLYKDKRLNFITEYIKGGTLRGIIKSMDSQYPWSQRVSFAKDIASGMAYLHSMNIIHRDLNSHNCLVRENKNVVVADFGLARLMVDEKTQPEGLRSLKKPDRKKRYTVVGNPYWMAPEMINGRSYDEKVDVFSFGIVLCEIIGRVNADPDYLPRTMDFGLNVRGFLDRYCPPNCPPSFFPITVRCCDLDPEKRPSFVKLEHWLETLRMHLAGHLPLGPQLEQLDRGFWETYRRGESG"}, "MAPKI (h)": {"target": "MAPKI (h) (human (h), UniProt P28482 1-360, limits assumed)", "sequence (P28482 whole entry)": "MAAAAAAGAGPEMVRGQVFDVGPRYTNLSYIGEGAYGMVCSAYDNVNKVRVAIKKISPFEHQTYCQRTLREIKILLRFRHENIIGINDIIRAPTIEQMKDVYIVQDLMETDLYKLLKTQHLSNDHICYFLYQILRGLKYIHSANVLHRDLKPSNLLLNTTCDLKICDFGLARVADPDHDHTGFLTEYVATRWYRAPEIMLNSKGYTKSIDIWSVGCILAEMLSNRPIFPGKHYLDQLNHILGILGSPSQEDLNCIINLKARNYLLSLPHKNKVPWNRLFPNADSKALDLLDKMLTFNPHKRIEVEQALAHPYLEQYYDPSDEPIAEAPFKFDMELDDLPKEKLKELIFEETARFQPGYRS"}, "MLCK (h)": {"target": "MLCK (h) (human (h))"}, "PhKγ2 (h)": {"target": "T3, PhKγ2 (h) (human (h), UniProt P15735 1-406)", "T3 sequence (looked up)": "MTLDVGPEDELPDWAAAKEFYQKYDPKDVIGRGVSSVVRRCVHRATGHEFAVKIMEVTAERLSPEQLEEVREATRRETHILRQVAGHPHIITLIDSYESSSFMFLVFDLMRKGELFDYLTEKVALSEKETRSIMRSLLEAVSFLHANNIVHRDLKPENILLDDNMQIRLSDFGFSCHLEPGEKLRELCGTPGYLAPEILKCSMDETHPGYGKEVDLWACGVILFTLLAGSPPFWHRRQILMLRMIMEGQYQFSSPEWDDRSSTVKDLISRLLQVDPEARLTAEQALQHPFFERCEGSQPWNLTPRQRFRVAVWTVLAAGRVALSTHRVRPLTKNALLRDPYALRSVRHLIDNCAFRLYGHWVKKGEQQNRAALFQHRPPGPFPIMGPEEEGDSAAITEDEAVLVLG"}, "Pim-1 (h)": {"target": "Pim-1 (h) (human (h), UniProt P11309 1-313)", "sequence (P11309 whole entry)": "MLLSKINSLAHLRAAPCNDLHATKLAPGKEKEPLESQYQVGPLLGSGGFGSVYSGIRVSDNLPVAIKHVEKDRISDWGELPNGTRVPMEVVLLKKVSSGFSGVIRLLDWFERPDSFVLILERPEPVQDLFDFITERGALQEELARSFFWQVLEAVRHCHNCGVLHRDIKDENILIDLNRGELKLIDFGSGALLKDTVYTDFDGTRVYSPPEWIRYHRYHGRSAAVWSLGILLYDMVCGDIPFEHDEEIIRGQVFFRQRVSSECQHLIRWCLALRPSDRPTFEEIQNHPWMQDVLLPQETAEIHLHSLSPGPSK"}, "PKCδ (h)": {"target": "PKCδ (h) (human (h), UniProt Q05655 1-676)", "sequence (Q05655 whole entry, stated change not applied)": "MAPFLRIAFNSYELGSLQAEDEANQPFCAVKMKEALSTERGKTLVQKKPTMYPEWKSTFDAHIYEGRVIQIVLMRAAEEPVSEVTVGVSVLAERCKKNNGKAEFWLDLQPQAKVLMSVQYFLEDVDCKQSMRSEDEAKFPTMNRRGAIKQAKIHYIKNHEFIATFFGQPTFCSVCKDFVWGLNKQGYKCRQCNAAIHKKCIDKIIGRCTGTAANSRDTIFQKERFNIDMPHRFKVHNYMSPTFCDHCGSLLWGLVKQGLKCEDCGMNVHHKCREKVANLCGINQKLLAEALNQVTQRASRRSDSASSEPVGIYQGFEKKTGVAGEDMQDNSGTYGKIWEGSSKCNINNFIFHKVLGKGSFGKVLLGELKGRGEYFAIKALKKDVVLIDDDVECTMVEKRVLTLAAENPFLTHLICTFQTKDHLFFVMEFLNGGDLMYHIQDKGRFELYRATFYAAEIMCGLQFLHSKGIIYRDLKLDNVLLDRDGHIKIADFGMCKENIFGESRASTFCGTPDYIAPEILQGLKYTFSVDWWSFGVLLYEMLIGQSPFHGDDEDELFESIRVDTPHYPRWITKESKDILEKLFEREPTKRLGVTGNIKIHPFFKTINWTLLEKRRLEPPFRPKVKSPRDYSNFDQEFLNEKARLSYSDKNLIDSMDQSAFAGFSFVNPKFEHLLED"}, "Src(1-530) (h)": {"target": "Src(1-530) (h) (human (h), UniProt P12931 1-530)"}, "Syk (h)": {"target": "Syk (h) (human (h), UniProt P43405 1-635)"}, "Tie2 (h)": {"target": "Tie2 (h) (human (h), UniProt Q02763 771-1124, limits assumed)", "sequence (Q02763 771-1124 limits assumed)": "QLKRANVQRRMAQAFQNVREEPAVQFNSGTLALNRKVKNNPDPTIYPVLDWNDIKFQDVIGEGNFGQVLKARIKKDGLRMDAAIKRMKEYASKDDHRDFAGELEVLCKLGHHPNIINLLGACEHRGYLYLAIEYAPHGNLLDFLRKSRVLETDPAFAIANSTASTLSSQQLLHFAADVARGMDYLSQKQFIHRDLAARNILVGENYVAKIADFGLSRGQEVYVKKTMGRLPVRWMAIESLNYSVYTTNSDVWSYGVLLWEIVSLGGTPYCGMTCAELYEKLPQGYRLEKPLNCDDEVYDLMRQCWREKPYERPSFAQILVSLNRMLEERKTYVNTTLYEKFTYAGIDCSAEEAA"}, "Met (h)": {"target": "Met (h) (human (h), UniProt P08581 974-1390, limits assumed)", "sequence (P08581 974-1390 limits assumed)": "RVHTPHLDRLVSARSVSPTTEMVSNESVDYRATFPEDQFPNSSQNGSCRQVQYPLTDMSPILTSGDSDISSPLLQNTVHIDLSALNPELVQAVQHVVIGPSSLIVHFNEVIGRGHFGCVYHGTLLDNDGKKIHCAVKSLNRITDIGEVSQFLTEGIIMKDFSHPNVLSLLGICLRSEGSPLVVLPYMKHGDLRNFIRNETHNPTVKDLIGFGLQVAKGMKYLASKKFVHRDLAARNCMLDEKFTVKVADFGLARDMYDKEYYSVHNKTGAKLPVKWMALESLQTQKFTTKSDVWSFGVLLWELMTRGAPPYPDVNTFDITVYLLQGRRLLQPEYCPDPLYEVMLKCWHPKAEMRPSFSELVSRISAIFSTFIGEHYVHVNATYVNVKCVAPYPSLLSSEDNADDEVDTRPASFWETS"}},
  "data": [
    {"binder": "WLRRIKAWLRRIKALNRQLGVAA", "values": [
      {"measurement": "Profile-1 @ = 30 µm (kinase profiler assay)", "setting": "Abl (h)", "value": 24},
      {"measurement": "Profile-1 @ = 30 µm (kinase profiler assay)", "setting": "AMPK (r)", "value": 36},
      {"measurement": "Profile-1 @ = 30 µm (kinase profiler assay)", "setting": "CaMKI (h)", "value": 9},
      {"measurement": "Profile-1 @ = 30 µm (kinase profiler assay)", "setting": "CDKI/cyclinB (h)", "value": 17},
      {"measurement": "Profile-1 @ = 30 µm (kinase profiler assay)", "setting": "CKIB (h)", "value": 52},
      {"measurement": "Profile-1 @ = 30 µm (kinase profiler assay)", "setting": "DYRK2 (h)", "value": 93},
      {"measurement": "Profile-1 @ = 30 µm (kinase profiler assay)", "setting": "EphA2 (h)", "value": 38},
      {"measurement": "Profile-1 @ = 30 µm (kinase profiler assay)", "setting": "FGFR1 (h)", "value": 27},
      {"measurement": "Profile-1 @ = 30 µm (kinase profiler assay)", "setting": "GSK3β (h)", "value": 129},
      {"measurement": "Profile-1 @ = 30 µm (kinase profiler assay)", "setting": "IGF-IR (h)", "value": 227},
      {"measurement": "Profile-1 @ = 30 µm (kinase profiler assay)", "setting": "Lck (h)", "value": 130},
      {"measurement": "Profile-1 @ = 30 µm (kinase profiler assay)", "setting": "L1MK1 (h)", "value": 89},
      {"measurement": "Profile-1 @ = 30 µm (kinase profiler assay)", "setting": "MAPKI (h)", "value": 121},
      {"measurement": "Profile-1 @ = 30 µm (kinase profiler assay)", "setting": "MLCK (h)", "value": 4},
      {"measurement": "Profile-1 @ = 30 µm (kinase profiler assay)", "setting": "PhKγ2 (h)", "value": 15},
      {"measurement": "Profile-1 @ = 30 µm (kinase profiler assay)", "setting": "Pim-1 (h)", "value": 5},
      {"measurement": "Profile-1 @ = 30 µm (kinase profiler assay)", "setting": "PKCδ (h)", "value": 11},
      {"measurement": "Profile-1 @ = 30 µm (kinase profiler assay)", "setting": "Src(1-530) (h)", "value": 6},
      {"measurement": "Profile-1 @ = 30 µm (kinase profiler assay)", "setting": "Syk (h)", "value": 19},
      {"measurement": "Profile-1 @ = 30 µm (kinase profiler assay)", "setting": "Tie2 (h)", "value": 17}
    ]},
    {"binder": "FAKLAARLYRKALARQLGVAA", "values": [
      {"measurement": "Profile-1 @ = 100 µm (kinase profiler assay)", "setting": "Met (h)", "value": 17}
    ]}
  ]
}
